T1: α-fructosyl-valyl-histidyl-leucyl-threonyl-proryl-glutamic acid
T1 chain: VHLTPE

B1: PnFX-62D/106K/110L/113K (protein)
chain: MAPSRANTSVIVVGGGGTIGSSTALHLVRSGYTPSNVTVLDAYPIPSSQSAGNDLNKIMGVDLRNPVDLQLALEARQMWNEDELFKKFFHNTGRLDCAHGEKDIAKLKSLYQKLVDAGLDATNEWLDSEDEILKRMPLLSRDQIKGWKAIFSKDGGWLAAAKAINAVGEYLRDQGVRFGFYGAGSFKAPLLAEGVCIGVETVDGTRYYADKVVLAAGAWSPTLVELHEQCVSKAWVYGHIQLTPEEAARYKNSPVVYNGDVGFFFEPNEHGVIKVCDEFPGFTRFKMHQPFGAKAPKRISVPRSHAKHPTDTIPDASDVSIRRAIATFMPQFKNKKMFNQAMCWCTDTADAALLICEHPEWKNFVLATGDSGHSFKLLPNIGKHVVELLEGTLADDLAHAWRWRPGSGDALKSRRSAPAKDLADMPGWNHDKPRANL
B2: PnFX-62D/63H/106K/110L/113K/351S (protein)
chain: MAPSRANTSVIVVGGGGTIGSSTALHLVRSGYTPSNVTVLDAYPIPSSQSAGNDLNKIMGVDHRNPVDLQLALEARQMWNEDELFKKFFHNTGRLDCAHGEKDIAKLKSLYQKLVDAGLDATNEWLDSEDEILKRMPLLSRDQIKGWKAIFSKDGGWLAAAKAINAVGEYLRDQGVRFGFYGAGSFKAPLLAEGVCIGVETVDGTRYYADKVVLAAGAWSPTLVELHEQCVSKAWVYGHIQLTPEEAARYKNSPVVYNGDVGFFFEPNEHGVIKVCDEFPGFTRFKMHQPFGAKAPKRISVPRSHAKHPTDTIPDASDVSIRRAIATFMPQFKNKKMFNQAMCWCTDTADSALLICEHPEWKNFVLATGDSGHSFKLLPNIGKHVVELLEGTLADDLAHAWRWRPGSGDALKSRRSAPAKDLADMPGWNHDKPRANL
B3: fructosyl amino acid oxidase derived from Aspergillus nidulans resulting from substitution of serine at position 59 with glycine (protein)
chain: MTPRANTKIIVVGGGGTMGSSTALHLLRAGYTPSNITVLDTCPIPSAQSAGYDLNKIMGIRLRNKPDLQLSLEALDMWKNDPLFKPFFHNVGMIDVSSTEEGIEGLRKKYQSLLDAGIGLEKTNFMLESEDEILAKAPHFTQEQIKGWKGLFCGDGGWLAAAKAINAIGQFLKEQGVKFGFGGAGTFKKPLFADAHEKTCIGVETVDGTKYYADKVVLAAGAWSSTLVDLEEQCVSKAWVFAHIQLTPAEAAAYKNTPVIYDGDYGFFFEPNENGIIKVCDEFPGFTHFKMHQPYGSPAPKPISVPRSHAKHPTDTYPHASEVTIKKAINRFLPRFNDKELFNRAMCWCTDTADANLLVCEHPRWKGFYLATGDSGHSFKLLPNIGKHVVELLEERLESVFKDAWRWRPGSGDALKSRRAAPAKDLADMPGWRNEAKM
B4: AnFX-61D/105K/109L (protein)
chain: MTPRANTKIIVVGGGGTMGSSTALHLLRAGYTPSNITVLDTCPIPSAQSAGYDLNKIMGIDLRNKPDLQLSLEALDMWKNDPLFKPFFHNVGMIDVSSTEEGIEKLRKLYQSLLDAGIGLEKTNFMLESEDEILAKAPHFTQEQIKGWKGLFCGDGGWLAAAKAINAIGQFLKEQGVKFGFGGAGTFKKPLFADAHEKTCIGVETVDGTKYYADKVVLAAGAWSSTLVDLEEQCVSKAWVFAHIQLTPAEAAAYKNTPVIYDGDYGFFFEPNENGIIKVCDEFPGFTHFKMHQPYGSPAPKPISVPRSHAKHPTDTYPHASEVTIKKAINRFLPRFNDKELFNRAMCWCTDTADANLLVCEHPRWKGFYLATGDSGHSFKLLPNIGKHVVELLEERLESVFKDAWRWRPGSGDALKSRRAAPAKDLADMPGWRNEAKM
B5: AnFX-61D/62H/101K/105K/109L/112K/355S (protein)
chain: MTPRANTKIIVVGGGGTMGSSTALHLLRAGYTPSNITVLDTCPIPSAQSAGYDLNKIMGIDHRNKPDLQLSLEALDMWKNDPLFKPFFHNVGMIDVSSTEKGIEKLRKLYQKLLDAGIGLEKTNFMLESEDEILAKAPHFTQEQIKGWKGLFCGDGGWLAAAKAINAIGQFLKEQGVKFGFGGAGTFKKPLFADAHEKTCIGVETVDGTKYYADKVVLAAGAWSSTLVDLEEQCVSKAWVFAHIQLTPAEAAAYKNTPVIYDGDYGFFFEPNENGIIKVCDEFPGFTHFKMHQPYGSPAPKPISVPRSHAKHPTDTYPHASEVTIKKAINRFLPRFNDKELFNRAMCWCTDTADSNLLVCEHPRWKGFYLATGDSGHSFKLLPNIGKHVVELLEERLESVFKDAWRWRPGSGDALKSRRAAPAKDLADMPGWRNEAKM
B6: fructosyl peptide oxidase derived from Eupenicillium terrenum (protein)
chain: MAHSRASTKVVVVGGGGTIGSSTALHLIRSGYTPSNITVLDVYKTPSLQSAGHDLNKIMGIRLRNGPDLQLSLESLDMWQNDELFKPFFHQVGMIDCSSSKEGIENLRRKYQTLLDAGIGLEKTNVWLESEDEILAKAPNFTREQVKGWKGLFCTDGGWLAAAKAINAIGIFLQDKGVKFGFGDAGTFQQPLFAADGKTCIGLETTDGTKYFADKVVLAAGAWSPTLVDLEDQCVSKAWVFAHIQLTPKEADAYKNVPVVYDGEYGFFFEPDEYGVIKVCDEFPGFSRFKLHQPYGAASPKMISVPRSHAKHPTDTYPDASEVTIRKAIARFLPEFKDKELFNRTMCWCTDTADANLLICEHPKWKNFILATGDSGHSFKLLPNIGKYVVELLEGSLSQEMAGAWRWRPGGDALRSRRGAPAKDLAEMPGWKHDAHL
B7: EFP-T5-R62D (protein)
chain: MAHSRASTKVVVVGGGGTIGSSTALHLIRSGYTPSNITVLDVYKTPSLQSAGHDLNKIMGIDLRNGPDLQLSLESLDMWQNDELFKPFFHQVGMIDCSSSKEGIENLRRKYQTLLDAGIGLEKTNVWLESEDEILAKAPNFTREQVKGWKGLFCTDGGWLAAAKAINAIGIFLQDKGVKFGFGDAGTFQQPLFAADGKTCIGLETTDGTKYFADKVVLAAGAWSPTLVDLEDQCVSKAWVFAHIQLTPKEADAYKNVPVVYDGEYGFFFEPDEYGVIKVCDEFPGFSRFKLHQPYGAASPKMISVPRSHAKHPTDTYPDASEVTIRKAIARFLPEFKDKELFNRTMCWCTDTADANLLICEHPKWKNFILATGDSGHSFKLLPNIGKYVVELLEGSLSQEMAGAWRWRPGGDALRSRRGAPAKDLAEMPGWKHDAHL
B8: amadoriase exhibiting 95% sequence identity with ketoamine oxidase derived from Curvularia clavata (protein)
chain: MAPSRANTSVIVVGGGGTIGSSTALHLVRSGYTPSNITVLDAYPIPSSQSAGNDLNKIMGIRLRNKVDLQLSLEARQMWREDDLFKEYFHNTGRLDCAHGEEGLADLRQAYQALLDANAGLEETTEWLDSEDEILKKMPLLSRDQIKGWKAVYSQDGGWLAAAKAINAIGEYLRAQGVKFGFGGAGSFKQPLLAEGVCIGVETVDGTRYYADKVVLAAGAWSPTLVELHEQCVSKAWVYGHIQLTPEEAAEYKNSPVVYNGDVGFFFEPNEHGVIKVCDEFPGFTRFKMHQPFGAKAPKRISVPRSHAKHPTDTIPDASEKSIRKAIATFLPKFTEKELFNRHLCWCTDTADAALLICEHPEWKNFVLATGDSGHSFKLLPNIGKHVVELLEGTLADDLAHAWRWRPGSGDALKSRRSAPAKDLADMPGWKHDDVVKSKL
B9: Cc95FX-62D/63H/106K/110L/113K/353S (protein)
chain: MAPSRANTSVIVVGGGGTIGSSTALHLVRSGYTPSNITVLDAYPIPSSQSAGNDLNKIMGIDHRNKVDLQLSLEARQMWREDDLFKEYFHNTGRLDCAHGEEGLAKLRQLYQKLLDANAGLEETTEWLDSEDEILKKMPLLSRDQIKGWKAVYSQDGGWLAAAKAINAIGEYLRAQGVKFGFGGAGSFKQPLLAEGVCIGVETVDGTRYYADKVVLAAGAWSPTLVELHEQCVSKAWVYGHIQLTPEEAAEYKNSPVVYNGDVGFFFEPNEHGVIKVCDEFPGFTRFKMHQPFGAKAPKRISVPRSHAKHPTDTIPDASEKSIRKAIATFLPKFTEKELFNRHLCWCTDTADSALLICEHPEWKNFVLATGDSGHSFKLLPNIGKHVVELLEGTLADDLAHAWRWRPGSGDALKSRRSAPAKDLADMPGWKHDDVVKSKL
B10: ketoamine oxidase derived from Neocosmospora vasinfecta (protein)
chain: MTTPRKETTVLIIGGGGTIGSSTALHLLRAGYTPSNITVLDTYPIPSAQSAGNDLNKIMGIRLRNKVDLQLSLEARDMWRNDALFRPFFHNTGRLDCESSAEGVEGLRREYQKLVEAGVGLEETHEWLDSEEAILEKAPLLQREEIEGWKAIWSEEGGWLAAAKAINAIGEELQRQGVRFGFGGAGSFKRPLFADDGTTCIGVETVDGTQYHADKVVLAAGAWSPALVDLEEQCCSKAWVYAHMQLTPEEAAVYKGCPVVYHGDVGFFFEPNENGVIKVCDEFPGFTRFKQHQPYGAPAPKPVSVPRSHAKHPTDTYPDASEESIKRAVSTFLPRFKDKPLFNRALCWCTDTADSALLICEHPRWKNFILATGDSGHSFKLLPIIGKHVVELVEGRLADDLAEAWRWRPGQGDARKSIRAAPAKDLADMPGWKHDQDSESR
B11: NvFX-62D/106K/110L (protein)
chain: MTTPRKETTVLIIGGGGTIGSSTALHLLRAGYTPSNITVLDTYPIPSAQSAGNDLNKIMGIDLRNKVDLQLSLEARDMWRNDALFRPFFHNTGRLDCESSAEGVEKLRRLYQKLVEAGVGLEETHEWLDSEEAILEKAPLLQREEIEGWKAIWSEEGGWLAAAKAINAIGEELQRQGVRFGFGGAGSFKRPLFADDGTTCIGVETVDGTQYHADKVVLAAGAWSPALVDLEEQCCSKAWVYAHMQLTPEEAAVYKGCPVVYHGDVGFFFEPNENGVIKVCDEFPGFTRFKQHQPYGAPAPKPVSVPRSHAKHPTDTYPDASEESIKRAVSTFLPRFKDKPLFNRALCWCTDTADSALLICEHPRWKNFILATGDSGHSFKLLPIIGKHVVELVEGRLADDLAEAWRWRPGQGDARKSIRAAPAKDLADMPGWKHDQDSESR
B12: CFP-T7-H3 (protein)
chain: MTSNRADTRVIVVGGGGTIGSSTALHLVRSGYAPANITVLDTFEIPSAQSAGHDLNKIMGIALRNKVDLQMSLEARQMWKEDELFQPFFHNTGRMDCEHTPEGIEDLKKFYQALHDAGAGLEKTHAWLDNEDEILSKMPLLQRDQIQGWKAIWSQDGGWLAAAKAINAIGQFLKERGVKFGFGGAGSFKQPLFDDEGTTCIGVETADGTKYYADKVVLAAGAWSPTLVDLEDQCCSKAWVYAHIQLTPEEAAEYKGVPVVYNGEFGFFFEPDEFGVIKVCDEFPGFSRFKEHQPYGAPSPKRISVPRSHAKHPTDTYPDASEVSIKKAIATFLPRFQDKELFNRALCWCTDTADAALLMCEHPKWKNFILATGDSGHSFKILPNVGKYVVELIEGRLPEEMAYQWRWRPGGDALKSRRAAPPKDLADMPGWKHDPKL
B13: CFP-T7-H4 (protein)
chain: MTSNRADTRVIVVGGGGTIGSSTALHLVRSGYAPANITVLDTFEIPSAQSAGHDLNKIMGIALRNKVDLQMSLEARQMWKEDELFQPFFHNTGRMDCEHTPEGIEDLKKYYQALHDAGAGLEKTHAWLDNEDEILSKMPLLQRDQIQGWKAIWSQDGGWLAAAKAINAIGQFLKERGVKFGFGGAGSFKQPLFDDEGTTCIGVETADGTKYYADKVVLAAGAWSPTLVDLEDQCCSKAWVYAHIQLTPEEAAEYKGVPVVYNGEFGFFFEPDEFGVIKVCDEFPGFSRFKEHQPYGAPSPKRISVPRSHAKHPTDTYPDASEVSIKKAIATFLPRFQDKELFNRALCWCTDTADAALLMCEHPKWKNFILATGDSGHSFKILPNVGKYVVELIEGRLPEEMAYQWRWRPGGDALKSRRAAPPKDLADMPGWKHDPKL

Target: T1, α-fructosyl-valyl-histidyl-leucyl-threon …
Details: for αF6P oxidation activity: scale: relative value

Row | Protein | Specific activity (U/mg), 1 mM αF6P | specific activity on αF6P, fold over PnFX before mutation | αF6P oxidation activity
1 | B1 | 0.125 U/mg | specific activity on αF6P was elevated by 13.7 fold | 
2 | B2 | 0.667 U/mg |  | 
3 | B3 | 0 U/mg |  | 
4 | B4 | 0.106 U/mg |  | 
5 | B5 | 0.283 U/mg |  | 
6 | B6 | 0 U/mg |  | 
7 | B7 | 0.0043 U/mg |  | 
8 | B8 |  |  | 0
9 | B9 |  |  | 237
10 | B10 | 0 U/mg |  | 
11 | B11 | 0.003 U/mg |  | 
12 | B12 |  |  | 0.0298
13 | B13 |  |  | 0.0341

From patent publication US20160251695
